This passage reports EC50 and Kd results from patent US20230039487A1 (published 2023).

Residue numbers refer to the chain shown, from its start.

The labels stand for the following.
T1: hBCMA ECD hFc (ACRO, BC7-H5254) (human, UniProt Q02223 1-54)
T1 chain: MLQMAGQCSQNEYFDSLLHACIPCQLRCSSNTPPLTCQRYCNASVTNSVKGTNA

T2: hu (human) BCMA ECD His (ACRO, BCA-H522y) (human, UniProt Q02223 1-54)
T2 chain: T1 chain

B1: 5F4 (antibody, V domains shown)
VH: EVQLQQSGPELIKPGASVKMSCKASAGKWERWAHWVKQKPGQGLEWIGYKPAYWTSAYNEKFKGKATLTSDKSSSTAYMELSSLTSEDSAVYYCATLDYDDGYFDYWGQGTTLTVSS
VL: EIVLTQSPGTLSLSPGERATLSCRASQSVSSSYLAWYQQKPGQAPRLLIYQASSDATGIPDRFSGSGSGTDFTLTISRLEPEDFAVYYCQQYGYPPSYTFGQGTKVEIK
B2: 5E2 (antibody, V domains shown)
VH: EVQLQQSGPELIKPGASVKMSCKASGYTFTSYVVHWVKQKPGQGLEWIGYIIPYNDDTKYNEKFKGKATLTSDKSSSTAYMELSSLTSEDSAVYYCARWDYDDGYFDYWGQGTTLTVSS
VL: DVVMTQTPLSLPVTLGDQASISCRSSQSLLHSNGNTYLHWYLQKPGQSPKLLIYKVSNRFSGVPDRFSGSGSGTDFTLKISRVEAEDLGVYFCSQITHIPFTFGSGTKLEIKR
B3: R0317 (C11D5.3 BCMA mouse monoclonal antibody) (antibody, V domains shown)
VH: QIQLVQSGPELKKPGETVKISCKASGYTFTDYSINWVKRAPGKGLKWMGWINTETREPAYAYDFRGRFAFSLETSASTAYLQINNLKYEDTATYFCALDYSYAMDYWGQGTSVTVSS
VL: DIVLTQSPASLAMSLGKRATISCRASESVSVIGAHLIHWYQQKPGQPPKLLIYLASNLETGVPARFSGSGSGTDFTLTIDPVEEDDVAIYSCLQSRIFPRTFGGGTKLEIK
B4: hu VH2-VL1 (antibody, V domains shown)
VH: QVQLVQSGAEVKKPGASVKMSCKASGYTFTSYVVHWVRQAPGQGLEWIGYIIPYNDDTKYNEKFKGRVTLTSDKSTSTAYMELSSLRSEDTAVYYCARWDYDDGYFDYWGQGTTVTVSS
VL: DVVMTQSPLSLPVTLGQPASISCRSSQSLLHSNGNTYLHWYLQKPGQSPQLLIYKVSNRFSGVPDRFSGSGSGTDFTLKISRVEAEDVGVYFCSQITHIPFTFGQGTKLEIK
B5: hu VH1-VL2 (antibody, V domains shown)
VH: B4 VH with R67K, V68A, T76S
VL: B4 VL with S7T, P12S, L15P, R24K
B6: hu VH1-VL3 (antibody, V domains shown)
VH: B4 VH with R67K, V68A, T76S
VL: DIVMTQTPLSLSVTPGQPASISCKSSQSLLHSNGNTYLHWYLQKPGQPPQLLIYKVSNRFSGVPDRFSGSGSGTDFTLKISRVEAEDVGVYYCSQITHIPFTFGQGTKLEIKR
B7: hu VH1-VL1 (antibody, V domains shown)
VH: B4 VH with R67K, V68A, T76S
VL: B4 VL

The term EC50 denotes the concentration giving half of the maximal effect. Broadly, the Kd is the concentration at which binding is half-saturated. Low values mean tighter binding, high ones weaker binding.

The first assay has as its target T1, hBCMA ECD hFc (ACRO, BC7-H5254). Briefly: ELISA. (ELISA stands for enzyme-linked immunosorbent assay.)
Regarding B1, the concentration giving a half-maximal response (EC50) was found to be 0.305 nM. This counts as sub-nanomolar.
The same measure, in the same setting: then B2, with 0.279 nM; and B3, with 0.32 nM.

The target is the same in a further assay. Briefly: BLI (Fortebio). (In general: In BLI a coated tip is dipped into the sample, and binding shifts an interference pattern.)
As for B1, the Kd was under 0.001 nM.
Same read-out and setting: in the case of B2 it was under 0.001 nM.
On the same count and under the same terms, then B3, with under 0.001 nM.

A further assay addresses T2, hu (human) BCMA ECD His (ACRO, …). Briefly: ELISA.
B4 showed an EC50 of 0.0506 nM.
B5: the EC50 was determined as 0.0206 nM.
On the same count and under the same terms, then B6, with 0.0545 nM; and B7, with 0.0474 nM; and B2, with 0.054 nM.
